Experimental findings from PMC3894725 (Nature, 2012) are described below.

This data set deals with the molecule itself. Briefly: crystal structure.

B1: human pyruvate kinase M2 (His6-hPKM2) (enzyme)
chain: not shown
In the case of B1, the “stoichiometry N” value came out at 4.
